These results are taken from publication PMC11811200.

Substrate in this data set: Oc1cc(O)c2c(c1)O[C@H](c1ccc(O)c(O)c1)[C@@H](O)C2
Description: purified protein. Conditions: 100 mM acetate buffer pH 5.0, 28 °C, 5-300 μM substrate.

B1: SmLAC1 (recombinant MBP-SmLAC1) (Salvia miltiorrhiza) (protein)
chain: MERSLMFSAWVLALLVCLSSFASAAIVEHTFHVKNLTVNKLCRNQVITAVNGSLPGPTLRVHEGDTLVVHVFNKSPYNLTIHWHGIFQILSGWADGPEFATQCPIRPGQSYTYRFNITGQEGTLWWHAHVGWLRATVYGALVIRPRSGHSFPFPKPHREIPIVLGEWWNANVIDVENQALATGAAPNLSDAYTINGHPGNLYPCSSNDTFRLTVVHGKTYLLRIINAALNNQLFFKIANHNLTVVAVDASYTNPYTTDVVLVAPGQTTDVLLTADQTPARYYMAASAYQSAAGVPFDNTTTTGIVAYSGTTPSAPIMPLLPAFNDTPTAHRFFSNLTALVSSRFWAPVPRHVDERMFVTIGLGLSACDLPQCQGPFGLKLAASMNNASFQFPTRLSMLEAFFRGVGGIYTADFPDNPPVRFDYTNSSNSLNQALLNTTKSTKVKKVRFNSTVEVVLQNTAFLGVENHPIHLHGFNFYVLAQGFGNYNPALDTRKFNFVNPQERNTIGVPVGGWAVIRFRANNPGVWLIHCHLDVHLPWGLATAFVVENGPTPATTLPPPPADFPKC
B1: the Michaelis-Menten constant (Km) (commonly the substrate concentration at which the rate is half of its maximum) was determined as 21.2 µM.
